# From IntAct's records for PubMed 14597414
# B1: Prelamin-A/C (Homo sapiens), P02545 (parent)
# chain: METPSQRRATRSGAQASSTPLSPTRITRLQEKEDLQELNDRLAVYIDRVRSLETENAGLRLRITESEEVVSREVSGIKAAYEAELGDARKTLDSVAKERARLQLELSKVREEFKELKARNTKKEGDLIAAQARLKDLEALLNSKEAALSTALSEKRTLEGELHDLRGQVAKLEAALGEAKKQLQDEMLRRVDAENRLQTMKEELDFQKNIYSEELRETKRRHETRLVEIDNGKQREFESRLADALQELRAQHEDQVEQYKKELEKTYSAKLDNARQSAERNSNLVGAAHEELQQSRIRIDSLSAQLSQLQKQLAAKEAKLRDLEDSLARERDTSRRLLAEKEREMAEMRARMQQQLDEYQELLDIKLALDMEIHAYRKLLEGEEERLRLSPSPTSQRSRGRASSHSSQTQGGGSVTKKRKLESTESRSSFSQHARTSGRVAVEEVDEEGKFVRLRNKSNEDQSMGNWQIKRQNGDDPLLTYRFPPKFTLKAGQVVTIWAAGAGATHSPPTDLVWKAQNTWGCGNSLRTALINSTGEEVAMRKLVRSVTVVEDDEDEDGDDLLHHHHGSHCSSSGDPAEYNLRSRTVLCGTCGQPADKASASGSGAQVGGPISSGSSASSVTVTRSYRSVGGSGGGSFGDNLVTRSYLLGNSSPRTQSPQNCSIM
# partner: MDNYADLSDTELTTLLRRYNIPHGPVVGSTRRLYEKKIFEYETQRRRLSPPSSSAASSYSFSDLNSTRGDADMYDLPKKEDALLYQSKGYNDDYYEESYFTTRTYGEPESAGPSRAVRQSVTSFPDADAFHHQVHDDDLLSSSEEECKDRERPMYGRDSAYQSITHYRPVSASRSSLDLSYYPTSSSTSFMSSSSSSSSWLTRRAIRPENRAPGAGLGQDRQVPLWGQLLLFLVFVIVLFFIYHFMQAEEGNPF
# Variants of: B1
# Settings: with emd_human EMD
row,effect of a mutation on the interaction,Variant
1,decreasing interaction strength,R482L
